We go through one substance from US20090081200A1.

The target in experiment [1] is full-length human tissue factor with C-terminal RGS-His6 tag, stably expressed on CHO-K1 cells (human) (UniProt P13726). The experiment in a line: flow cytometry (FACScan) on stable CHO clone #TF48 expressing full-length hTF; first antibody 10 µg/ml, FITC-labeled goat anti-mouse IgG 1:50.
For experiment [2] the target is unchanged. The experiment in a line: flow cytometry (FACScan) on stable CHO clone #TF34 expressing full-length hTF; first antibody 10 µg/ml, FITC-labeled goat anti-mouse IgG 1:50.

full-length human tissue factor with C-terminal RGS-His6 tag, stably expressed on CHO-K1 cells (human), sequence (P13726 other isoform, or with tags, fused parts or gaps): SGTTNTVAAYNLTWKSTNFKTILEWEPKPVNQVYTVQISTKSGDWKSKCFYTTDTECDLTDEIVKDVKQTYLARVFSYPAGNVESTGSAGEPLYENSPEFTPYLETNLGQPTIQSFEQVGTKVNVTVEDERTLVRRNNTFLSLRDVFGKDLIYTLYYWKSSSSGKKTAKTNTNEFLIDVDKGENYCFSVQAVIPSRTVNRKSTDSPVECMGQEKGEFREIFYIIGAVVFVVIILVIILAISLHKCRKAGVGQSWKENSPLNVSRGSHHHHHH

With “mouse anti-human TF mAb (Calbiochem, Cat. # 612161) (antibody)”, in experiment [1], the % Total in marker M1 (negative gate) came to 0.99%; the % Total in marker M2 (positive gate) stood at 98.9%; the Geo Mean (FL1-H), marker All is 168; the Geo Mean (FL1-H), marker M1 is 7.54. The substance further yielded a Geo Mean (FL1-H), marker M2 in experiment [1] of 174. Further, in experiment [2], the % Total in marker M1 (negative gate) came to 0.42%; the % Total in marker M2 (positive gate) turned out to be 99.4%; the Geo Mean (FL1-H), marker All is 262; the Geo Mean (FL1-H), marker M1 turned out to be 8.16. Moreover, in experiment [2], the Geo Mean (FL1-H), marker M2 came out at 267.
